Results taken from patent US20020102651A1 (Dana-Farber, published 2002).

Biological target: T1, human B7-4M (B7-4 membrane form), expressed on transfected COS or CHO cells (human, UniProt Q9NZQ7 19-290)
T1 construct: also called 292
Assay: FACS on B7-4M-transfected COS cells
Description: COS cells were transfected with either vector DNA (pCDNAI), or an expression plasmid containing the B7-4M cDNA. After 72 hours, the tansfected COS cells were detached by incubation in PBS containing 0.5 mM EDTA for 30 min. at 37° C.
The ability of COS cells expressing B7-4M to bind to various T cell ligands and antibodies was tested. […] The ability of COS cells expressing B7-4M to bind to IgG and murine ICOS-his fusion protein was also tested. No binding of human B7-4 to murine ICOS was detected (FIG. 9).

T1 sequence (Q9NZQ7 19-290): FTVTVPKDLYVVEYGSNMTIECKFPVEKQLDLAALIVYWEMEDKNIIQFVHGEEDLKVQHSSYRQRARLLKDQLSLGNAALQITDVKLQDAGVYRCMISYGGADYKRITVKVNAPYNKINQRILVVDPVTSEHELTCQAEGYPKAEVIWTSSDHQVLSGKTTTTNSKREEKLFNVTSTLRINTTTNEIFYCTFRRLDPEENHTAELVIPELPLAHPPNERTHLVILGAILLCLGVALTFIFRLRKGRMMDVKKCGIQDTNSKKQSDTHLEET

B1: murine ICOS-his fusion protein (receptor, mouse, UniProt Q9WVS0 21-144, looked up)
chain: EINGSADHRMFSFHNGGVQISCKYPETVQQLKMRLFREREVLCELTKTKGSGNAVSIKNPMLCLYHLSNNSVSFFLNNPDSSQGSYYFCSLSIFDPPPFQERNLSGGYLHIYESQLCCQLKLWL
notes: not shown: his tag
binding result: no binding
